In publication PMC9625839:

Biological target: high-affinity mouse IL2 receptor on CTLL-2 cells (mouse (endogenous in CTLL-2))

CTLL-2 cell proliferation (WST-1 absorbance), EC50: 0.6 ng/mL
Substance: aldesleukin (FDA-approved recombinant human IL2) (from UniProt P60568 21-133) (ligand)
